{
  "source": "patent US7098001B2",
  "about": "“Polypeptides having dipeptidyl aminopeptidase activity and nucleic acids encoding same” (Novozymes, Inc., priority 1997, dated 2006)",
  "molecules": {"B1": {"name": "dipeptidyl aminopeptidase I: Recombinant Aspergillus oryzae 1568 (ATCC 20386) dipeptidyl aminopeptidase I, 771 amino acids (SEQ ID NO:2), produced in Fusarium and purified (protein, listed as Aspergillus oryzae)", "chain": "MKYSKLLLLLVSVVQALDVPRKPHAPTGEGSKRLTFNETVVKQAITPTSRSVQWLSGAEDGSYVYAAEDGSLTIENIVTNESRTLIPADKIPTGKEAFNYWIHPDLSSVLWASNHTKQYRHSFFADYYVQDVESLKSVPLMPDQEGDIQYAQWSPVGNTIAFVRENDLYVWDNGTVTRITDDGGPDMFHGVPDWIYEEEILGDRYALWFSPDGEYLAYLSFNETGVPTYTVQYYMDNQEIAPAYPWELKIRYPKVSQTNPTVTLSLLNIASKEVKQAPIDAFESTDLIIGEVAWLTDTHTTVAAKAFNRVQDQQKVVAVDTASNKATVISDRDGTDGWLDNLLSMKYIGPIKPSDKDAYYIDISDHSGWAHLYLFPVSGGEPIPLTKGDWEVTSILSIDQERQLVYYLSTQHHSTERHLYSVSYSTFAVTPLVDDTVAAYWSASFSANSGYYILTYGGPDVPYQELYTTNSTKPLRTITDNAKVLEQIKDYALPNITYFELPLPSGETLNVMQRLPPGFSPDKKYPILFTPYGGPGAQEVTKRWQALNFKAYVASDSELEYVTWTVDNRGTGFKGRKFRSAVTRQLGLLEAEDQIYAAQQAANIPWIDADHIGIWGWSFGGYLTSKVLEKDSGAFTLGVITAPVSDWRFYDSMYTERYMKTLSTNEEGYETSAVRKTDGFKNVEGGFLIQHGTGDDNVHFQNSAALVDLLMGDGVSPEKLHSQWFTDSDHGISYHGGGVFLYKQLARKLYQEKNRQTQVLMHQWTKKDLEE"}},
  "key": {"[1]": {"assay": "temperature stability of dipeptidyl aminopeptidase I", "assay_type": "physicochemical", "settings": "for Percent activity relative to 37iC.: 20 minutes, pH 7.5, no substrate, assayed with Ala-Pro-pNA", "protocol": "The temperature stability of the dipeptidyl aminopeptidase I was determined using the following protocol: 490 μl of 50 mM sodium phosphate buffer pH 7.5 was preincubated at 37 ? , 45 ? , 55 ? , 60 ? , 65 ? , 70 ? , and 75 ? C for 30 minutes in a 1.7 ml Eppendorf tube. Then 10 μl of purified dipeptidyl aminopeptidase I was added and the sample was then incubated for an additional 20 minutes. The samples were then placed on ice. Once the incubations were completed for all the temperatures, the samples were then assayed for activity using Ala-Pro-pNA as substrate.\nThe assay was performed by mixing 30 μl of the incubation mixtures for the various temperatures with 200 μl of 2 mg/ml Ala-Pro-pNA in 50 mM sodium phosphate pH 7.5 buffer) at ambient temperature. The absorbance at 405 nm was monitored for 5 minutes."}, "[2]": {"assay": "synergism of aminopeptidase I and dipeptidyl aminopeptidase I on Ala-Phe-Pro-pNA", "assay_type": "biochemical", "settings": "100-fold diluted enzyme alone, over 10 minutes", "protocol": "The substrate was prepared by dissolving 2 mg of Ala-Phe-Pro-pNA (Bachem, Torrance, Calif.) in 20 μl of DMSO. Then, 980 μl of 50 mM sodium phosphate buffer pH 7.5 and 100 μl of ethanol were added. In a 96 well microtiter plate, 100 μl of the Ala-Phe-Pro-pNA solution was added to 100 μl of 100-fold diluted aminopeptidase I (Example 12); 100 μl of the Ala-Phe-Pro-pNA solution was added to 100 μl of 100-fold diluted dipeptidyl aminopeptidase I (Example 11); and 100 μl of the Ala-Phe-Pro-pNA solution was added to a mixture of 50 μl of 100-fold diluted aminopeptidase I and 50 μl of 100-fold diluted dipeptidyl aminopeptidase I. The absorbance at 405 nm was measured for 10 minutes."}, "[3]": {"test_system": "gelatin, soy bean meal tablets, wheat gluten, and sodium-caseinate", "assay": "degree of hydrolysis (DH) assays, OPA method", "assay_type": "biochemical", "settings": "0.125 mg added to FLAVOURZYME 3 mg and ALCALASE 3 mg; 50 C, 18 hours; all proteins tested", "protocol": "The degree of hydrolysis (DH) assays were performed at 50 ? C for 18 hours as a mini-hydrolysis on a 10 ml scale using gelatin, soy bean meal tablets, wheat gluten, and sodium-caseinate at a 2% concentration adjusted to pH 7, if necessary, with no pH adjustment during hydrolysis. The hydrolyses were inactivated at 85 ? C for 3 minutes in a waterbath. The enzymes used were FLAVOURZYME™ with ALCALASE™ 2.4L (Novo Nordisk A/S, Bagsvrd, Denmark) and dipeptidyl aminopeptidase I with FLAVOURZYME™ and ALCALASE™ 2.4L. FLAVOURZYME™, ALCALASE™, and dipeptidyl aminopeptidase I were dosed at 3 mg, 3 mg, 0.125 mg, respectively, per 200 mg of protein per ml.\nThe DH, as defined by Adler-Nissen (1986, Enzymic Hydrolysis of Food Proteins, Elsevier Applied Science Publishers), was determined by reaction of the supernatant with OPA (ortho-phtaldialdehyde, Sigma Chemical Co., St. Louis, Mo.). […]\nA volume of 25 μl of suitably diluted supernatant was mixed with 200 μl of OPA reagent in a microtiter plate well and allowed to react for exactly 2 minutes at 25 ? C The absorbance at 340 nm was measured in a microtiter plate reader and compared to the absorbance of a […] L-serine standard solution after subtraction of the blank value (water reacted with OPA-reagent). […] The degree of hydrolysis was calculated on basis of the total amount of protein in the hydrolysis mixture (not on basis of soluble protein)."}, "[4]": {"assay": "activity of the purified enzymes on Leu-pNA", "assay_type": "biochemical", "settings": "100-fold dilution", "protocol": "The enzyme solution was then loaded onto a XK-26 column containing Q-Sepharose Big Beads pre-equilibrated with 20 mM phosphate buffer pH 7.5 buffer. A gradient was run from 0 to 300 mM NaCl, and then washed with 350 ml of 300 mM NaCl. Fractions were assayed for Leu-pNA activity according to the following protocol. The substrate was prepared by dissolving 2 mg of Leu-pNA (Sigma Chemical Co., St. Louis, Mo.) in 20 μl of DMSO. Then, 980 μl of 50 mM sodium phosphate pH 7.5 buffer was added. In a 96 well microtiter plate, 100 μl of the substrate solution was added to 100 μl of Aspergillus oryzae aminopeptidase I (100 fold diluted in 50 mM sodium phosphate pH 7.5 buffer) and the increase in absorbance at 405 nm was measured for 4 minutes using a SpectroMax 340 plate reader.\nThe purified aminopeptidase I was determined to have an activity of 26.822 LAPUs/ml for Leu-pNA using an extinction coefficient of 10,000 for para-nitroaniline at 405 nm. LAPU is defined as the leucine aminopeptidase activity which is determined as described in AF 298/1-GB (available on request from Novo Nordisk A/S, Denmark). The purified dipeptidyl aminopeptidase I was determined to have an activity of 11.54 DPAPU/ml for Ala-Pro-pNA, also using an extinction coefficient of 10000 for paranitroaniline. […]"}},
  "data": [
    {"molecule": "B1", "values": [
      {"measurement": "Percent activity relative to 37iC.", "setting": "[1]; 37 C", "value": 100, "unit": "%"},
      {"measurement": "Percent activity relative to 37iC.", "setting": "[1]; 45 C", "value": 103, "unit": "%"},
      {"measurement": "Percent activity relative to 37iC.", "setting": "[1]; 55 C", "value": 103, "unit": "%"},
      {"measurement": "Percent activity relative to 37iC.", "setting": "[1]; 65 C", "value": 92.5, "unit": "%"},
      {"measurement": "Percent activity relative to 37iC.", "setting": "[1]; 70 C", "value": 37.7, "unit": "%"},
      {"measurement": "Percent activity relative to 37iC.", "setting": "[1]; 75 C", "value": 0.7, "unit": "%"},
      {"measurement": "activity retained", "setting": "[1]; after a 20 minute incubation at 65 C, pH 7.5", "value": 90, "unit": "%"},
      {"measurement": "activity on Ala-Phe-Pro-pNA", "setting": "[2]", "value": "no activity"},
      {"measurement": "increase of the degree of hydrolysis above FLAVOURZYME and ALCALASE alone", "setting": "[3]", "value": 5, "unit": "%"},
      {"measurement": "velocity on Leu-pNA", "setting": "[4]", "value": "< 2", "unit": "mOD/min"}
    ]}
  ]
}
